Article PMC6769490, “Protein Engineering of Multi-Modular Transcription Factor Alcohol Dehydrogenase Repressor 1 (Adr1p), a Tool for Dissecting In Vitro Transcription Activation” (Biomolecules, 2019)
“And” between values parts separate entries of the source, which are not always exact repeats. Equal values may be shown once.

Columns and labels:
[1] = molecular target: the molecule itself; assay: native gel or EMSA; N-PAGE/EMSA with half site dsDNA (one binding site), no CHAPS; 20, 40 and 80 pmol protein; stoichiometric mixture of both proteins (40 pmol) in lane 7
[2] = molecular target: the molecule itself; assay: SEC; miniAdr1-BL alone, freshly purified and concentrated, no DNA; Superdex G75 on HPLC, 50 mM Na/K phosphate pH 6.9, 150 mM NaCl, 4 mM TCEP, 5 mM CHAPS, 5% glycerol, 3.5 mM spermine, 0.018 mM Zn acetate; 0.4 mL/min; masses from a calibration curve
[3] = molecular target: T1, miniAdr1-BL (untagged) (Saccharomyces cerevisiae, UniProt P07248 75-471, del1-74;del179-418;del472-1323); assay: EMSA; 5 mM CHAPS; hairpin not competent for binding; 40 mM Na phosphate pH 7.5, 40 mM NaCl, 10% glycerol, 18 uM Zn acetate (+/- 5 mM CHAPS, DTT, spermine), 30 min 4 C; HPLC-purified: 20 mM phosphate pH 7.0, 40 mM; conditions: protein: recombinant; tags: none; chain copies: 2; label: 33P; hairpin of a single strand, 5' overhang 4 nt
T1 sequence: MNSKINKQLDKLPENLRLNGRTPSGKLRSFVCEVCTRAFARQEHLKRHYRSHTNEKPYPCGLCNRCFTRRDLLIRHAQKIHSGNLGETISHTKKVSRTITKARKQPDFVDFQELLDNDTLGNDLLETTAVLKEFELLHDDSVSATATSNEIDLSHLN

[4] = molecular target: T1, miniAdr1-BL (untagged); assay: EMSA; 5 mM CHAPS, Zn acetate; protein 3.16e-8 to 1e-6 M, DNA 1e-8 M; 40 mM Na phosphate pH 7.5, 40 mM NaCl, 10% glycerol, 18 uM Zn acetate (+/- 5 mM CHAPS, DTT, spermine), 30 min 4 C; HPLC-purified: 20 mM phosphate pH 7.0, 40 mM; conditions: protein: recombinant; tags: none; chain copies: 2; label: 33P (5' kinase label); self-complementary duplex, 5' overhang 4 nt at both ends
[5] = molecular target: T2, Adr1-DBD (untagged) (Saccharomyces cerevisiae, UniProt P07248 75-178); assay: EMSA; 5 mM CHAPS, Zn acetate; two smeared bands; 40 mM Na phosphate pH 7.5, 40 mM NaCl, 10% glycerol, 18 uM Zn acetate (+/- 5 mM CHAPS, DTT, spermine), 30 min 4 C; HPLC-purified: 20 mM phosphate pH 7.0, 40 mM; conditions: protein: recombinant; tags: none; label: 33P (5' kinase label); self-complementary duplex, 5' overhang 4 nt at both ends
T2 sequence: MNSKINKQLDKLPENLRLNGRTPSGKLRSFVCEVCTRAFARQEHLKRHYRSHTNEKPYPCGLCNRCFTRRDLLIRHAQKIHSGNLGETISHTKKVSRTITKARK

[6] = molecular target: T1, miniAdr1-BL (untagged); assay: EMSA; no CHAPS, Zn acetate; mostly dimer; 40 mM Na phosphate pH 7.5, 40 mM NaCl, 10% glycerol, 18 uM Zn acetate (+/- 5 mM CHAPS, DTT, spermine), 30 min 4 C; HPLC-purified: 20 mM phosphate pH 7.0, 40 mM; conditions: protein: recombinant; tags: none; chain copies: 2; label: 33P or none (ethidium bromide); 5' overhang 1 nt at both ends
[7] = molecular target: T3, His-Adr1-165 (Saccharomyces cerevisiae, UniProt P07248 1-165); assay: EMSA; CM + heparin purified; monomer and dimer; 40 mM Na phosphate pH 7.5, 40 mM NaCl, 10% glycerol, 18 uM Zn acetate (+/- 5 mM CHAPS, DTT, spermine), 30 min 4 C; HPLC-purified: 20 mM phosphate pH 7.0, 40 mM; conditions: protein: recombinant; tags: His-tag; label: 33P or none (ethidium bromide); 5' overhang 1 nt at both ends
T3 sequence: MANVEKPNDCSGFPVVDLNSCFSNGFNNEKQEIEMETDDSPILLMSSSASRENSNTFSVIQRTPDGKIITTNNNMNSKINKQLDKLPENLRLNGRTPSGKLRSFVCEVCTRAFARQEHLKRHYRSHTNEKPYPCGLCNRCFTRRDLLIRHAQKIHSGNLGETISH

[8] = molecular target: T2, Adr1-DBD (untagged); assay: EMSA; no CHAPS, Zn acetate; mostly monomer; 40 mM Na phosphate pH 7.5, 40 mM NaCl, 10% glycerol, 18 uM Zn acetate (+/- 5 mM CHAPS, DTT, spermine), 30 min 4 C; HPLC-purified: 20 mM phosphate pH 7.0, 40 mM; conditions: protein: recombinant; tags: none; label: 33P or none (ethidium bromide); 5' overhang 1 nt at both ends
[9] = molecular target: the molecule itself; assay: native gel or EMSA; DNA binding assay with half site dsDNA; partially purified His-tagged Adr1-165 from bacteria (Supplementary Figure S1d, lanes 12-14)

B1: miniAdr1-BL (Adr1_Δ179-418), untagged (domain or fragment, Saccharomyces cerevisiae, UniProt P07248 75-471, looked up)
chain: MNSKINKQLDKLPENLRLNGRTPSGKLRSFVCEVCTRAFARQEHLKRHYRSHTNEKPYPCGLCNRCFTRRDLLIRHAQKIHSGNLGETISHTKKVSRTITKARKQPDFVDFQELLDNDTLGNDLLETTAVLKEFELLHDDSVSATATSNEIDLSHLN
notes: Alcohol dehydrogenase repressor 1 (Adr1p), Saccharomyces cerevisiae, UniProt P07248; residues 75-178 (PAR-TAD I with the basic linker 158-178) directly linked to residues 419-471 (core of TAD III); TAD I and TAD III fragments were ligated through inserted BamHI sites; Printed mass 18 kDa; also called construct (4); basic linker construct; source: Komagataella pastoris X-33, cytoplasm, purified …
stoichiometry N [1]: 2 | stoichiometry N [2]: ~2 and ~3

B2: Adr1-DBD (residues 75-178), untagged (domain or fragment, Saccharomyces cerevisiae, UniProt P07248 75-178, looked up)
chain: MNSKINKQLDKLPENLRLNGRTPSGKLRSFVCEVCTRAFARQEHLKRHYRSHTNEKPYPCGLCNRCFTRRDLLIRHAQKIHSGNLGETISHTKKVSRTITKARK
notes: Alcohol dehydrogenase repressor 1 (Adr1p), Saccharomyces cerevisiae, UniProt P07248; Printed mass 12.4 kDa; also called construct (5); source: Komagataella pastoris X-33, purified (CM sepharose, SEC)
stoichiometry N [1]: 2

CCGGCCTCTCCAACTTATAAGTTGGAGAGG (structured_DNA) [Palindromic UAS1 hairpin]
binding result [3]: no binding

B3: Palindromic UAS1 (dsDNA)
DNA 1: CCGGCCTCTCCAACTTATAAGTTGGAGAGG
DNA 2: CCGGCCTCTCCAACTTATAAGTTGGAGAGG
binding result [4]: binds | binding result [5]: binds

B4: Half site UAS1 (dsDNA)
DNA 1: TCCGGGCATCTCCAACTTA
DNA 2: CTAAGTTGGAGATGCCCGG
binding result [6]: binds | binding result [7]: binds | binding result [8]: binds

B5: His-tagged Adr1-165 (residues 1-165) (domain or fragment, Saccharomyces cerevisiae, UniProt P07248 1-165, looked up)
chain: MANVEKPNDCSGFPVVDLNSCFSNGFNNEKQEIEMETDDSPILLMSSSASRENSNTFSVIQRTPDGKIITTNNNMNSKINKQLDKLPENLRLNGRTPSGKLRSFVCEVCTRAFARQEHLKRHYRSHTNEKPYPCGLCNRCFTRRDLLIRHAQKIHSGNLGETISH
notes: Alcohol dehydrogenase repressor 1 (Adr1p), Saccharomyces cerevisiae, UniProt P07248; residues 1-165, comprising only TAD I; also called HisAdr1-165; His-Adr1-165; source: E. coli BL21(DE3), pET28b, partially purified
stoichiometry N [9]: 2
